Laboratory results from PMC4452782.

What was measured:
[1] = target: LC3B (human (endogenous in MDA-MB-436)) (UniProt Q9GZQ8); experiment: proximity ligation; P-LISA (Duolink In Situ Detection Reagents Red) on MDA-MB-436 cells fixed with 4% paraformaldehyde and permeabilised with cold methanol; endogenous proteins; mouse anti-SQSTM1 or anti-NIX with rabbit anti-LC3B or anti-GL1; dots per cell counted with BlobFinder; untreated cells, also after Rapa (10 uM, 5 h), Rot (50 uM, 24 h) or CCCP (100 uM, 24 h)
[2] = target: GEC1/GABARAPL1 (GL1) (human (endogenous in MDA-MB-436 and MCF-7)) (UniProt Q9H0R8); experiment: as above
GEC1/GABARAPL1 (GL1) (human (endogenous in MDA-MB-436 and MCF-7)), sequence (Q9H0R8 whole entry): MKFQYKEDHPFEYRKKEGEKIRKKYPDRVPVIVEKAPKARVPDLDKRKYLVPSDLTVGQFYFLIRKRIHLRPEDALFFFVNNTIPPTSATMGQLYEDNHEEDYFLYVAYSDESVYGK

NIX/BNIP3L, O60238 1-219 (natural protein; other documents disagree on this pair), sequence (O60238 whole entry): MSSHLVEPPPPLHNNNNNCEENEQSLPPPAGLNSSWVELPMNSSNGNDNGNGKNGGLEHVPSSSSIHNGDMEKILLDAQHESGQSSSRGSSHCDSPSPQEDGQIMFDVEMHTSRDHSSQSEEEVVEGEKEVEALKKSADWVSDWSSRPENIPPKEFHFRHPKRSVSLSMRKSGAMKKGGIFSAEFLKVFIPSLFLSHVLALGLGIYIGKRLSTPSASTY

P-LISA dots per cell [1]: 18.9 dots/cell | P-LISA dots per cell [2]: 11.6 dots/cell
Substance: NIX/BNIP3L, O60238 1-219 (natural protein; other documents disagree on this pair)
